By stoichiometry N is commonly meant a count of units in the complex or per binding partner.

One data set addresses MxiH (Shigella flexneri) (UniProt P0A223). As to the kind of experiment: avidin labelling with negative-stain EM; needle complexes with biotinylated Avitag proteins held on Ni-NTA beads by His6-MxiG, avidin in 300 to 500 molar excess overnight at 4°C, washed, eluted, negative stain; avidin counted on the needle tips.
The target in data set [1] is IpaD (Shigella flexneri) (UniProt P18013). As to the kind of experiment: negative-stain EM three-dimensional reconstruction; tip complex and needle of purified needle complexes from the ΔipaB strain; single particle and helical image analysis, 25 Å; complex assembled on the bacteria.
The target in a further data set is IpaB (Shigella flexneri). As to the kind of experiment: avidin labelling with negative-stain EM; needle complexes with biotinylated Avitag proteins held on Ni-NTA beads by His6-MxiG, avidin in 300 to 500 molar excess overnight at 4°C, washed, eluted, negative stain; avidin counted on the needle tips.
The target of data set [2] is IpaD (Shigella flexneri) (UniProt P18013). As to the kind of experiment: negative-stain EM three-dimensional reconstruction; tip complex and needle of needle complexes purified on Ni-NTA by His6-MxiG from mxiH mutant strains (Q51A, P44A, P44A+Q51A), 21-24 Å; Q51A map refined to 19 Å; complex assembled on the bacteria.
For data set [3] the target is unchanged. As to the kind of experiment: negative-stain EM three-dimensional reconstruction; tip complex and needle of purified needle complexes from the wild-type strain; the half of the images with the lower cross-correlation to the ΔipaB map, 24 Å; complex assembled on the bacteria.
In data set [4] the target is IpaD_avitag (Shigella flexneri) (UniProt P18013). As to the kind of experiment: avidin labelling with negative-stain EM; needle complexes with biotinylated Avitag proteins held on Ni-NTA beads by His6-MxiG, avidin in 300 to 500 molar excess overnight at 4°C, washed, eluted, negative stain; avidin counted on the needle tips.
Data set [5] concerns the molecule itself. As to the kind of experiment: cross-linking; bacteria of otherwise wild-type background treated with 30 uM BM(PEG)2, quenched; crudely purified needle complexes, Western blot with anti-IpaD and anti-IpaB; no bands with the oxidiser; pattern unchanged on addition of Congo red. (In general: Immunoblotting shows a protein as a band on a membrane.)

MxiH (Shigella flexneri), sequence (P0A223 whole entry): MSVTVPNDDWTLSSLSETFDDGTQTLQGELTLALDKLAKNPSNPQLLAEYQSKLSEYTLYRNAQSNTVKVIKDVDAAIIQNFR

The molecule IpaB_avitag (natural protein) gave a percent of needle tips labelled with at least one avidin in the data set with MxiH (Shigella flexneri) of 2.5%.
“IpaD (from UniProt P18013 1-332) (natural protein)”: the stoichiometry N with IpaD (Shigella flexneri) [1] stood at 5; in the data set with IpaB (Shigella flexneri), 4; in the data set with IpaD (Shigella flexneri) [2] it was 4; with IpaD (Shigella flexneri) [3], 4.
“IpaD_avitag (from UniProt P18013 1-332) (natural protein)”: the stoichiometry N in data set [4] turned out to be 4. Besides, in the data set with MxiH (Shigella flexneri), the percent of needle tips labelled with at least one avidin amounted to 25%.

B1: IpaD C322S/S173C/K258C (natural protein)
chain: MNITTLTNSISTSSFSPNNTNGSSTETVNSDIKTTTSSHPVSSLTMLNDTLHNIRTTNQALKKELSQKTLTKTSLEEIALHSSQISMDVNKSAQLLDILSRNEYPINKDARELLHSAPKEAELDGDQMISHRELWAKIANSINDINEQYLKVYEHAVSSYTQMYQDFSAVLSCLAGWISPGGNDGNSVKLQVNSLKKALEELKEKYKDKPLYPANNTVSQEQANKWLTELGGTIGKVSQKNGGYVVSINMTPIDNMLCSLDNLGGNGEVVLDNAKYQAWNAGFSAEDETMKNNLQTLVQKYSNANSIFDNLVKVLSSTISSSTDTDKLFLHF
notes: IpaD, Shigella flexneri, with the intrinsic cysteine 322 changed to serine and two cysteines put in (helix α3 and helix α6); also called ipaDS173C/K258C; source: S. flexneri ΔipaD, ΔipaB ΔipaD or ΔmxiH ΔipaD background, from pUC18 ipaD_(C322S); on needle tips, in sheared needles or crudely purified needle complexes
B1: the “stoichiometry N” value in data set [5] was found to be 5.
